From patent publication US20160340420A1 (Novartis, published 2016)

Tests used:
[1] = biological target: T1, biotinylated VEGF (human, UniProt P15692-4 27-191, limits assumed, biotinylated (sites not given)); test: competition ELISA with VEGFR2/Fc for biotinylated VEGF; 6% 1008, 9% sucrose, 20 mM citrate, 0.1% PS80, pH 6.25; 2-8 C, 8 weeks
T1 construct: The ELISA paragraph says only 'biotinylated VEGF'; also called human vascular endothelial growth factor A; VEGF-A
Experimental: (§1) The competition ELISA was used for potency testing.
(§2) The samples were stored at 2-8° C., 25° C., 40° C. and light cabinet (LC); they also went through three cycles of freeze-thaw (FT). The samples were pulled according to the schedule shown in Table 30, and analyzed by various analytical methods.

[2] = biological target: T1, biotinylated VEGF; test: competition ELISA with VEGFR2/Fc for biotinylated VEGF; 6% 1008, 9% sucrose, 20 mM citrate, 0.1% PS80, pH 6.25; 25 C, 26 weeks
Experimental: as §1, §2

[3] = biological target: T1, biotinylated VEGF; test: competition ELISA with VEGFR2/Fc for biotinylated VEGF; 6% 1008, 9% sucrose, 20 mM citrate, 0.1% PS80, pH 6.25; 2-8 C, 26 weeks
Experimental: as §1, §2

[4] = biological target: T1, biotinylated VEGF; test: competition ELISA with VEGFR2/Fc for biotinylated VEGF; 6% 1008, 9% sucrose, 20 mM citrate, 0.1% PS80, pH 6.25; 25 C, 8 weeks
Experimental: as §1, §2

[5] = biological target: T1, biotinylated VEGF; test: competition ELISA with VEGFR2/Fc for biotinylated VEGF; 6% 1008, 9% sucrose, 20 mM citrate, 0.1% PS80, pH 6.25; 40 C, 4 weeks
Experimental: as §1, §2

[6] = biological target: T1, biotinylated VEGF; test: competition ELISA with VEGFR2/Fc for biotinylated VEGF; 6% 1008, 9% sucrose, 20 mM citrate, 0.1% PS80, pH 6.25; 2-8 C, 0 weeks
Experimental: as §1, §2

[7] = biological target: T1, biotinylated VEGF; test: competition ELISA with VEGFR2/Fc for biotinylated VEGF; 6% 1008, 9% sucrose, 20 mM citrate, 0.1% PS80, pH 6.25; 25 C, 12 weeks
Experimental: as §1, §2

[8] = biological target: T1, biotinylated VEGF; test: competition ELISA with VEGFR2/Fc for biotinylated VEGF; 6% 1008, 9% sucrose, 20 mM citrate, 0.1% PS80, pH 6.25; 2-8 C, 12 weeks
Experimental: as §1, §2

[9] = biological target: T1, biotinylated VEGF; test: competition ELISA with VEGFR2/Fc for biotinylated VEGF; 6% 1008, 9% sucrose, 20 mM citrate, 0.1% PS80, pH 6.25; 40 C column, 0 weeks (initial)
Experimental: as §1, §2

[10] = biological target: T1, biotinylated VEGF; test: competition ELISA with VEGFR2/Fc for biotinylated VEGF; control formulation (60 mg/ml 1008, 20 mM citrate, 0.001% PS20, pH 6.25), 5 weeks at 40 C
Experimental: as §1
The control formulation was filtered through 0.2 um syringe filter and stored at 40° C., ambient room temperature, and refrigerator. The samples were pulled at 0, 2 and 5 weeks for 40° C. samples, and 26 weeks for samples stored at ambient room temperature and refrigerator. The selected stability samples were tested for pH, osmolality, content by A280, SEC, IEX CGE and ELISA.

T1 sequence (P15692 other isoform, or with tags, fused parts or gaps limits assumed): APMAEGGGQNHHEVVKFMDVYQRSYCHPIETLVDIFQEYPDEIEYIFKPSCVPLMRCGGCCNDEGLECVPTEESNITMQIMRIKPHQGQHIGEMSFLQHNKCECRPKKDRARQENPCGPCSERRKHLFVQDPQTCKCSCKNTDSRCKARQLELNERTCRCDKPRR

B1: 1008 antibody (scFv)
scFv: MEIVMTQSPSTLSASVGDRVIITCQASEIIHSWLAWYQQKPGKAPKLLIYLASTLASGVPSRFSGSGSGAEFTLTISSLQPDDFATYYCQNVYLASTNGANFGQGTKLTVLGGGGGSGGGGSGGGGSGGGGSEVQLVESGGGLVQPGGSLRLSCTASGFSLTDYYYMTWVRQAPGKGLEWVGFIDPDDDPYYATWAKGRFTISRDNSKNTLYLQMNSLRAEDTAVYYCAGGDHNSGWGLDIWGQGTLVTVSS
notes: also called anti-VEGF antibody
[1]
  ELISA (relative potency against 1008 reference standard): 1.2 ratio to 1008 reference standard
[2]
  ELISA (relative potency against 1008 reference standard): 1.1 ratio to 1008 reference standard
[3]
  ELISA (relative potency against 1008 reference standard): 1.1 ratio to 1008 reference standard
[4]
  ELISA (relative potency against 1008 reference standard): 1.1 ratio to 1008 reference standard
[5]
  ELISA (relative potency against 1008 reference standard): 0.87 ratio to 1008 reference standard
[6]
  ELISA (relative potency against 1008 reference standard): 0.86 ratio to 1008 reference standard
[7]
  ELISA (relative potency against 1008 reference standard): 0.92 ratio to 1008 reference standard
[8]
  ELISA (relative potency against 1008 reference standard): 0.97 ratio to 1008 reference standard
[9]
  ELISA (relative potency against 1008 reference standard): 0.86 ratio to 1008 reference standard
[10]
  ELISA (relative potency against 1008 reference standard): 1 ratio to 1008 reference standard
